Measurements: article PMC12491437 (Nature Communications, 2025)
Where “and” joins values, the source holds several entries; their conditions need not be identical. Equal entries are not always repeated.

B1: D2R V96S/V97C, FLAG-D2R-Rluc8 / FLAG-D2R-Venus (receptor, UniProt P14416 1-443, looked up)
chain: MDPLNLSWYDDDLERQNWSRPFNGSDGKADRPHYNYYATLLTLLIAVIVFGNVLVCMAVSREKALQTTTNYLIVSLAVADLLVATLVMPWVVYLESCGEWKFSRIHCDIFVTLDVMMCTASILNLCAISIDRYTAVAMPMLYNTRYSSKRRVTVMISIVWVLSFTISCPLLFGLNNADQNECIIANPAFVVYSSIVSFYVPFIVTLLVYIKIYIVLRRRRKRVNTKRSSRAFRAHLRAPLKGNCTHPEDMKLCTVIMKSNGSFPVNRRRVEAARRAQELEMEMLSSTSPPERTRYSPIPPSHHQLTLPDPSHHGLHSTPDSPAKPEKNGHAKDHPKIAKIFEIQTMPNGKTRTSLKTMSRRKLSQQKEKKATQMLAIVLGVFIICWLPFFITHILNIHCDCNIPPVLYSAFTWLGYVNSAVNPIIYTTFNIEFRKAFLKILHC
notes: D2 dopamine receptor; mutant made from the FLAG-D2R-Rluc8 plasmid by site-directed mutagenesis; The mutant was also moved into the FLAG-D2R-Venus plasmid for saturation BRET; also called Mut2; D2R-Rluc8 V96S/V97C; source: HEK293, transfected; in intact cells (BRET, PD-PALM) and in lysate (Western blot); not shown: FLAG, N-terminal, kept; Rluc8 (donor copy)

Legend:
[1] = target: D2 dopamine receptor (D2R) wild type, FLAG-D2R-Rluc8 / FLAG-D2R-Venus (UniProt P14416); test: FRET or BRET; β-arrestin recruitment BRET in HEK293 cells: D2R-Rluc8 donor, βarr1-YFP or βarr2-YFP acceptor, 5 μM coelenterazine-h; basal (PBS) and after quinpirole (10 μM time course over 5 min, fitted to a one-phase association; 1 nM-1 mM concentration response)
[2] = target: D2R V96C, FLAG-D2R-Rluc8 / FLAG-D2R-Venus (UniProt P14416); test: as above
[3] = target: D2R V96S, FLAG-D2R-Rluc8 / FLAG-D2R-Venus (UniProt P14416); test: as above
D2R V97C, FLAG-D2R-Rluc8 = D2R V97C, FLAG-D2R-Rluc8 (UniProt P14416); test: as above
[4] = target: D2R Y93C, FLAG-D2R-Rluc8 / FLAG-D2R-Venus (UniProt P14416); test: as above
[5] = target: the molecule itself; test: PD-PALM (single-molecule localisation microscopy, TIRF, neighbourhood analysis); cell surface FLAG-D2R on HEK293 cells labelled with anti-FLAG-CAGE500 (1:1), fixed; Getis-Franklin neighbourhood analysis, search radius 50 nm; basal or after 5 min 10 μM quinpirole

Molecule | half time of quinpirole-induced recruitment [1] | half time of quinpirole-induced recruitment [2] | initial rate of quinpirole-induced recruitment (BRET ratio units per second) [2] | k (rate constant of quinpirole-induced recruitment, one-phase association fit) [2] | half time of quinpirole-induced recruitment [3] | initial rate of quinpirole-induced recruitment (BRET ratio units per second) [3] | k (rate constant of quinpirole-induced recruitment, one-phase association fit) [3] | half time of quinpirole-induced recruitment (D2R V97C, FLAG-D2R-Rluc8) | initial rate of quinpirole-induced recruitment (BRET ratio units per second) (D2R V97C, FLAG-D2R-Rluc8) | k (rate constant of quinpirole-induced recruitment, one-phase association fit) (D2R V97C, FLAG-D2R-Rluc8) | half time of quinpirole-induced recruitment [4] | initial rate of quinpirole-induced recruitment (BRET ratio units per second) [4] | k (rate constant of quinpirole-induced recruitment, one-phase association fit) [4] | increase of receptors in oligomers relative to D2R WT [5]
β-arrestin-2-YFP (from UniProt P32121 1-409) (natural protein) | 68.4 s and 30.3 s and 41.1 s | 35.5 s | 0.001 | 0.02 s⁻¹ | 39.4 s | 0.0007 | 0.027 s⁻¹ | 32.7 s | 0.000181 | 0.00443 s⁻¹ | 34.6 s | 0.000113 | 0.00333 s⁻¹ | –
B1 | – | – | – | – | – | – | – | – | – | – | – | – | – | ~6%
